Measured values from publication PMC9680732.
pKd: −log10 of the molar value.

Target: singly biotinylated A20 zinc finger 4 (ZnF4: S592-K635) (human) (UniProt P21580)
Assay: BLI

singly biotinylated A20 zinc finger 4 (ZnF4: S592-K635) (human), sequence (P21580 592-635): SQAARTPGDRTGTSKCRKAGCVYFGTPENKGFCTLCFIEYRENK

pKd: 5.70
Substance: K63-linked triubiquitin (from UniProt P0CG48 1-76)
